From PMC5077174, “Analysis of the Physiological Activities of Scd6 through Its Interaction with Hmt1” (PLoS ONE, 2016) come the findings set out here.

This assay deals with T1, GST-Scd6 (S. cerevisiae, UniProt P45978 1-349).
T1 construct: Scd6, S. cerevisiae; source: E. coli BL21 (DE3), purified (glutathione-sepharose beads)
T1 sequence (looked up): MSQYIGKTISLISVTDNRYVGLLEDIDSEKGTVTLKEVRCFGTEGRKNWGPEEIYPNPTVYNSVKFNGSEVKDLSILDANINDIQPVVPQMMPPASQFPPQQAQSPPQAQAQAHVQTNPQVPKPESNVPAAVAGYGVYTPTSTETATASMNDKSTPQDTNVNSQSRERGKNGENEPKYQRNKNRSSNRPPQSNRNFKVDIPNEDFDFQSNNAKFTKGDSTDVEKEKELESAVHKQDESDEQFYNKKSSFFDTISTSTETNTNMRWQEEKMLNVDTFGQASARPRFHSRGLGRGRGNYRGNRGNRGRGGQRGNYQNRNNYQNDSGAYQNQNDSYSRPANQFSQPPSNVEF
Kind of assay: pull-down; His6-Hmt1 incubated with GST or GST-Scd6 immobilized on glutathione-sepharose beads for 3 h at 4°C, 5 washes with PBS; Coomassie staining and anti-His immunoblot. The note with it: both partners purified.

B1: His6-Hmt1 (natural protein, S. cerevisiae, UniProt P38074 1-348, looked up)
chain: MSKTAVKDSATEKTKLSESEQHYFNSYDHYGIHEEMLQDTVRTLSYRNAIIQNKDLFKDKIVLDVGCGTGILSMFAAKHGAKHVIGVDMSSIIEMAKELVELNGFSDKITLLRGKLEDVHLPFPKVDIIISEWMGYFLLYESMMDTVLYARDHYLVEGGLIFPDKCSIHLAGLEDSQYKDEKLNYWQDVYGFDYSPFVPLVLHEPIVDTVERNNVNTTSDKLIEFDLNTVKISDLAFKSNFKLTAKRQDMINGIVTWFDIVFPAPKGKRPVEFSTGPHAPYTHWKQTIFYFPDDLDAETGDTIEGELVCSPNEKNNRDLNIKISYKFESNGIDGNSRSRKNEGSYLMH
notes: Hmt1, S. cerevisiae; source: E. coli BL21 (DE3), purified (Ni-NTA agarose, imidazole elution, dialyzed)
B1: the binding result was “binds”.
